First the molecules themselves.
T1: recombinant human fibromodulin (FMOD) with C-terminal His-tag (human, UniProt Q06828 19-376)
T1 chain: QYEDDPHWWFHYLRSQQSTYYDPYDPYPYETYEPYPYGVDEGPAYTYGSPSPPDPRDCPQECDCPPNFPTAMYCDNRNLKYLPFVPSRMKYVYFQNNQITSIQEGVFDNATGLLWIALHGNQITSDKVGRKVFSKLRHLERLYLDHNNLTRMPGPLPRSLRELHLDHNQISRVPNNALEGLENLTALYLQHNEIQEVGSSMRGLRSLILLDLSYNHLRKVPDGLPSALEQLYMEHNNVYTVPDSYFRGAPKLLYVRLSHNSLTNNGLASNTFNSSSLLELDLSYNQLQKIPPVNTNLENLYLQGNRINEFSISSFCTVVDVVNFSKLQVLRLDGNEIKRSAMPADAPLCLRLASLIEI

B1: recombinant human fibromodulin (FMOD) with C-terminal His-tag (natural protein, UniProt Q06828 19-376, looked up)
chain: T1 chain
notes: fibromodulin, human; cDNA of a human FMOD transcript (NM_002023) subcloned into pSecTag2A; secreted into the culture supernatant of CHO-K1 cells; Proteoglycan made in CHO cells; also called His-tagged FMOD; not shown: His-tag, C-terminal, kept
B2: recombinant IL1R1 (R&D Systems 269-1R-100/CF) (receptor, human, UniProt P14778 18-336, looked up)
chain: LEADKCKEREEKIILVSSANEIDVRPCPLNPNEHKGTITWYKDDSKTPVSTEQASRIHQHKEKLWFVPAKVEDSGHYYCVVRNSSYCLRIKISAKFVENEPNLCYNAQAIFKQKLPVAGDGGLVCPYMEFFKNENNELPKLQWYKDCKPLLLDNIHFSGVKDRLIVMNVAEKHRGNYTCHASYTYLGKQYPITRVIEFITLEENKPTRPVIVSPANETMEVDLGSQIQLICNVTGQLSDIAYWKWNGSVIDEDDPVLGEDYYSVENPANKRRSTLITVLNISEIESRFYKHPFTCFAKNTHGIDAAYIQLIYPVTNFQK
notes: interleukin 1 receptor type 1, recombinant, His-tag-free, 55 kDa on SDS-PAGE, carrier-free; also called interleukin 1 receptor type 1; source: bought: R&D Systems (carrier-free)

In experiment [1] the target is T2, IL1β-IL1R1-IL1RAP ternary complex formed in vitro from recombinant proteins (human, UniProt P01584 117-269; P14778 18-336; Q9NPH3 21-367).
T2 construct: interleukin 1 beta, human, recombinant, His-tag-free, 17 kDa on SDS-PAGE; as m2; interleukin 1 receptor type 1, recombinant, His-tag-free, 55 kDa on SDS-PAGE; as m3; interleukin 1 receptor accessory protein, recombinant, His-tag-free, 70-75 kDa on SDS-PAGE; as m4; See the notes of m3 and m4 on the bought constructs; also called IL1β-IL1R1-IL1RAP complex; IL1β-IL1R1-ILRAP ternary complex; source: …
In words: pull-down; Pierce His Protein Interaction Pull-Down Kit; 150 μg His-tagged FMOD immobilised as bait; His-tag-free 100 μg IL1β, 100 μg IL1R1, 100 μg IL1RAP, or the complex formed beforehand (100 μg IL1β, 50 μg IL1R1, 50 μg IL1RAP, 4 °C overnight) as prey; eluate by SDS-PAGE and Western blotting. The note with it: both partners purified.

Experiment [2] addresses T1, recombinant human fibromodulin (FMOD) …. In words: SPR. (Surface plasmon resonance follows binding to a sensor surface in real time, without labels.)
In experiment [3] the target is B1. In words: SPR; Biacore 3000; FMOD immobilised on CM5 chip by amine coupling; IL1R1 or IL1RAP in HBS-EP pH 7.4 (0.15 M NaCl, 10 mM HEPES, 3 mM EDTA, 0.005% polysorbate 20), 50 μL/minute; double referencing; Scrubber 2.0. Conditions: both partners purified.

By koff is commonly meant the rate constant with which the complex falls apart. The term Kd denotes the constant that tells how readily two partners part at equilibrium.

Consider B1, for which, in experiment [1], the binding result is “binds”.

B2: in experiment [2], the koff was 0.02 s⁻¹. Moreover, the Kd in experiment [3] was 430 nM.

The record behind these values is article PMC11993684, “Fibromodulin selectively accelerates myofibroblast apoptosis in cutaneous wounds by enhancing interleukin 1β signaling” (Nature Communications, 2025).
